“Also recorded” adds a separate entry of the source.
Key:
[1] = molecular target: N1rec, tetrameric recombinant N1 Neuraminidase (Influenza A virus, UniProt Q30CC2); test: biochemical; design: species or system H5N1 A/crested eagle/Belgium/09/2004
NIBRG-14ma virus = tested on: NIBRG-14ma virus; design: species or system BALB/c mice; settings: mouse, in vivo
H5N1 NIBRG-23 = test: microbe, parasite or virus in culture; assay type: cell-based, H5N1 influenza virus in MDCK cells; settings: Influenza A virus, H5N1, read-out: NIBRG-23, plaque size reduction
H5N1 NIBRG-14 = test: microbe, parasite or virus in culture; assay type: cell-based, H5N1 influenza virus in MDCK cells
[2] = molecular target: N1rec, tetrameric recombinant N1 Neuraminidase (soluble recombinant H5N1 NA derived from A/crested e (influenza A virus A/crested eagle/Belgium/01/2004 (H5N1))); test: cell-based or functional assay
[3] = molecular target: N1rec, tetrameric recombinant N1 Neuraminidase (soluble recombinant H5N1 NA derived from A/crested e (influenza A virus A/crested eagle/Belgium/01/2004 (H5N1))); test: SPR (Biacore 3000), N1rec immobilized on CM5 chip, VHHm injected
N1rec = assay type: binding, H5N1 A/crested eagle/Belgium/09/2004
[4] = molecular target: N1rec, tetrameric recombinant N1 Neuraminidase (soluble recombinant H5N1 NA derived from A/crested e (influenza A virus A/crested eagle/Belgium/01/2004 (H5N1))); test: SPR, immobilized N1rec

## CCOC(=O)C1=C[C@@H](OC(CC)CC)[C@H](NC(C)=O)[C@@H](N)C1 [Oseltamivir]
[1]
  IC50: 586 nM
NIBRG-14ma virus
  morbidity (body weight): significant body weight loss
  protection against lethality: protected the mice against lethality; also recorded: full protection
  viral RNA in lung homogenates (RT-qPCR Ct): only slightly different
NIBRG-14ma virus; po, 1 mg/kg/day
  survival: 100%
H5N1 NIBRG-23
  IC50: 73000 nM
H5N1 NIBRG-14; Influenza A virus, H5N1, read-out: NIBRG-14, plaque size reduction
  IC50: 15000 nM

B1: N1-5-VHHm (VHH)
VHH: QVQLQESGGGLVQPGGSLRLSCAASGSDISIYEMGWYRQAPGKQRELVAAITSGGTTNYADSVKGRFTISRDNAKNTVYLQMNSLKPEDTAVYYCNAADFDLWEYDYWGQGTQVTVSS
[2]
  IC50 of inhibition of the catalytic N1 NA activity (MUNANA, 160 ng N1rec): 375 nM
[3]
  Kd: 4.7 nM
  koff: 0.00058 s⁻¹
  kon: 120000 M⁻¹ s⁻¹

B2: N1-7-VHHm: binding but non-inhibitory N1-VHHm control (protein)
VHH: QVQLQESGGGLVQPGGSLRLSCAASGSRFSRYDMGWYRQAPGKQRELVATITSGGITNYADSVKGRFTISRDNTKNTVYLQMNSLKPEDTAVYYCNAEDPLRAIQLGSLTYEYWGQGTQVTVSSHHHHHH
N1rec
  Koff: 2.8E^−3 s^−1
  Kon: 4.4E^+4 M^−1 · s^−1
  binding to N1rec after prior binding of another N1-VHHm: not affected
  fold lower affinity KD than N1-5-VHHm and N1-3-VHHm, respectively: 10- to 100 fold
N1rec; read-out: KKD
  Kd: 63 nM
H5N1 NIBRG-14
  size and number of NIBRG-14 plaques: did not affect the size or number

B3: N1-3-VHHm (VHH)
VHH: QVQLQESGGGLVQPGGSLRLSCAASGSIFSIHDMGWYRRAPGKQRELVAAITSGGSTNYADSVKGRFTISRDNAKNTVSLQMNSLKPEDTAVYYCNAWGEDYGLGEYDSWGQGTQVTVSS
[2]
  IC50 of inhibition of the catalytic N1 NA activity (MUNANA, 160 ng N1rec): 425 nM
[3]
  Kd: 0.37 nM
  koff: 0.0013 s⁻¹
  kon: 3.6e+06 M⁻¹ s⁻¹

B4: N1-7-VHHm (VHH)
VHH: QVQLQESGGGLVQPGGSLRLSCAASGSRFSRYDMGWYRQAPGKQRELVATITSGGITNYADSVKGRFTISRDNTKNTVYLQMNSLKPEDTAVYYCNAEDPLRAIQLGSLTYEYWGQGTQVTVSS
[3]
  Kd: 63 nM
  koff: 0.0028 s⁻¹
  kon: 44000 M⁻¹ s⁻¹
[4]
  fold lower affinity (KD) than N1-3-VHHm: 100 fold
  fold lower affinity (KD) than N1-5-VHHm: 10 fold

From US10023629B2 (priority 2012, dated 2018)
